Experiment: yeast display, Sf9 membrane polyspecificity reagent, FACS + sequencing; frameworks hold sequencing errors
Outline: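 Nanobodies from a synthetic yeast display library (Saccharomyces cerevisiae BJ5465), induced 36–48 hours with galactose, were stained 1 hour at 4 °C with 10% biotinylated, detergent-solubilized Sf9 membrane reagent, enriched on streptavidin microbeads, then FACS-sorted. Anti-HA (expression) and streptavidin (reagent binding) fluorescence set low and high (top ~1%) gates. Polyreactivity labels come from the gate of origin. Genes were colony-PCR amplified, MiSeq 2 × 250 sequenced and filtered by CDR length.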
In the case of “QVQLVESGGGLVQAGGSLRLSCAASGRTFLVYAMGWYRQAPGKERDLVAAITGSGTSTYYADSVKRRFTISRDNGKNTVYLQMNSLKAEDTAVYYCAAEVRLGTYGYDYDYWGQGTQVTVSS”, the “polyreactivity (PSR sort gate)” value is reported as “high polyreactivity”.
For “QVQLVESGGGLVQAGGSLRLSCAASGRTFLVYAMGWYRQAPGKERELVAAISFSDGITYYADSVKGRFTISRDNAKNTVYIQMNSLKPEDTAVYYCATEILDYYYGSEYDYWGQGTQVTVSS”, the “polyreactivity (PSR sort gate)” value was “high polyreactivity”.
With “QVQLVESGGGLVQAGGSLRLSCAASGRTFLWYAMGWYRQAPGKEREFVAAITKSSGSTYYADSVKGRFTISRDNAKNTVFLQMNSLKPEDNAVYYCAKRPFSTRYDYWGQVTQVTVSS” the “polyreactivity (PSR sort gate)” value was “high polyreactivity”.
With “QVQLVESGGGLVQAGGSLRLSCAASGRTFLYNAMGWYRQAPGKERELVAAISWNGGSTYYADSVKGRFTISRDNAKNTVYLQMNSLKPEDTAVYYCNAVYRPRVGRRFPTGYDYWGQGTQVTVSS” the “polyreactivity (PSR sort gate)” value was “high polyreactivity”.
For “QVQLVESGGGLVQAGGSLRLSCAASGRTFNAYAMGWYRHAPGKERELVAAISSGGSTYYADSVKGRFTISRDNAKNTVYLLMNSLKPEDTAVYYCNKVYGWRQFDYWGQGTQVTVSS”, the “polyreactivity (PSR sort gate)” value was “high polyreactivity”.
In the case of “QVQLVESGGGLVQAGGSLRLSCAASGRTFNAYTLGWYTQAPGTERELVAAITSSGGNTYNADSVKGRFTISRDNAKNTVYLQMNSLKPEETAVYYCNTVYLYGTHDYWGQGTQVTVSS”, the “polyreactivity (PSR sort gate)” value is reported as “low polyreactivity”.
With “QVQLVESGGGLVQAGGSLRLSCAASGRTFNAYTMGWYRQAPGKERELVAAITRSGARTYYADSVKGRFTISRDNAKNTVYLQMNSLKPEDTAVYYCNKAAFNYYLYGYWGQGTQVTVSS” the “polyreactivity (PSR sort gate)” value was “high polyreactivity”.
For “QVQLVESGGGLVQAGGSLRLSCAASGRTFNEYAMGWYRQAPGKERELVAAISSSGDSTYYADSVKGRFTISRDNAKNTVYLQMNSLKPEDTAVYYCAAQVVVWYPYVYFPGYDYWGQGTQVTVSS”, the “polyreactivity (PSR sort gate)” value was “low polyreactivity”.
In the case of “QVQLVESGGGLVQAGGSLRLSCAASGRTFNFNTMGWYRQSPGKERELVASITSGGSTNYADSVKGRFTISRDNAKNTVYIQMNILKPEDTAVYYFAVTVSGPYAYDYWGQGTQVTVSS”, the “polyreactivity (PSR sort gate)” value is reported as “low polyreactivity”.
In the case of “QVQLVESGGGLVQAGGSLRLSCAASGRTFNGNAMGWYRQAPGKERELVAAISWSGGSTYYADSVKGRFTISRDNAKNTVYLQMNSLKPEDTAVYYCNADYFAWDLMYYWGQGTQVTVSS”, the “polyreactivity (PSR sort gate)” value is reported as “low polyreactivity”.
In the case of “QVQLVESGGGLVQAGGSLRLSCAASGRTFNGYAMGWSRQAPGKERELVAALTGSVGSTYYADSVKGRFTISRDNAKNPGELQLNSLKPDDTAVYYCATRWKATRARYDYWGQGTQVTVTS”, the “polyreactivity (PSR sort gate)” value is reported as “high polyreactivity”.
In the case of “QVQLVESGGGLVQAGGSLRLSCAASGRTFNGYAMGWYRQAPGKEREFVAAITSRGGSTYYADSVKGRFTISRDNAKNTVYLQMNSLKPEDTAVYYCAARAYTALSWRRYGYWGQGTQVTVSS”, the “polyreactivity (PSR sort gate)” value is reported as “high polyreactivity”.
With “QVQLVESGGGLVQAGGSLRLSCAASGRTFNHYAMGWYRQAPGKERELVPGITISGGSTYYADSVKGRFTISRDNAKNTVYLQMNSLKPEDTAVYYCNAVYDYYRQSNWTMDYWGQGTQVTVSS” the “polyreactivity (PSR sort gate)” value was “low polyreactivity”.
In the case of “QVQLVESGGGLVQAGGSLRLSCAASGRTFNKYAMGWYRQAPGKERELVAAINTSGGSTYYADSVKGRFTISRDNAKNTVYLQMNSLKPEDTAVYYCAAQSRSVYGRSYGYWGQGTQVTVSS”, the “polyreactivity (PSR sort gate)” value is reported as “high polyreactivity”.
With “QVQLVESGGGLVQAGGSLRLSCAASGRTFNLNAMGWYRQAPGKEREFVAAISNSGVRTYYADSVKGRFTISRDNAKNTVYLQMNSLKPVDTAVYYCARTYQVGDSIDDYWGQGTQVTVSS” the “polyreactivity (PSR sort gate)” value was “low polyreactivity”.
In the case of “QVQLVESGGGLVQAGGSLRLSCAASGRTFNLYAMGWSRQAPGKERELVARITSGGSTNYADSEKGRFTISRDNAKNTVYLQMNSLKPEDTAVYYCAASSYNRGDYWGQGTQVTVSS”, the “polyreactivity (PSR sort gate)” value is reported as “high polyreactivity”.
With “QVQLVESGGGLVQAGGSLRLSCAASGRTFNPNAMGWYRQAPGKERELVATISWSSDSTYYADSVKGRFTISRDNAKNTVYLQMNSLKPEDTAVYYCNAQLSYHWYSPGYDYWGQGTQVTVSS” the “polyreactivity (PSR sort gate)” value was “low polyreactivity”.
With “QVQLVESGGGLVQAGGSLRLSCAASGRTFNSTAMGWYRQAPGKERELVAAITRSGGSTYYADSVKGRFTISRDYAKNTVYLQMISQKPEDTAVNYCITTRWTQRTSFDYWGQGTQVTVSS” the “polyreactivity (PSR sort gate)” value was “low polyreactivity”.
In the case of “QVQLVESGGGLVQAGGSLRLSCAASGRTFNSYAMGWYRQAPGKERELVAAISWNTGSTYYADSVKGRFTISRDNAKNTVYLQMNSLKPEDTAVYYCAAEGELYTAFGTLSFDYWGHGTQVTVSS”, the “polyreactivity (PSR sort gate)” value is reported as “high polyreactivity”.
With “QVQLVESGGGLVQAGGSLRLSCAASGRTFNSYAMGWYRQSPGKERELVADITSSGGSTYYADSVKGRFTISRDNAKNTVFLQMNSLIPEDTALYYCAADGYTRLPTYLRVNHRSLDYWGQGTQVTVSS” the “polyreactivity (PSR sort gate)” value was “low polyreactivity”.
In the case of “QVQLVESGGGLVQAGGSLRLSCAASGRTFNTNAMGWYRQAPGKERELVAAISGGGSTYADSVKGRFTISRDNAKNTVYLQMNSLKPEDTAVYYCKAYPPYLYATYDYWGQGTQVTVSS”, the “polyreactivity (PSR sort gate)” value is reported as “low polyreactivity”.
For “QVQLVESGGGLVQAGGSLRLSCAASGRTFNVYAMGWYRQAPGKERELVAAISKSGGSTYYADSVKGRFTISRDNAKNTVYLQMTSLKPEDTAVYYCNRYRFVRQVRGGGLPYDYWGQGTQVTVSS”, the “polyreactivity (PSR sort gate)” value was “high polyreactivity”.
For “QVQLVESGGGLVQAGGSLRLSCAASGRTFNVYAMGWYRQAPGKERELVAVITNGGSTNYADSVKGRFTISRDNAKNTVYLQMNSLKPEDTAVYYCAADYYASLTREDRDDYWGQGTQVTVSS”, the “polyreactivity (PSR sort gate)” value was “low polyreactivity”.
With “QVQLVESGGGLVQAGGSLRLSCAASGRTFNWYTMGWYRQAPGKERELVARINGRGGSTYYADSVKGRFTISRDNAKNTVYLQMNSLKPEDTAVYYCAADLHKLARYDYWGQGTQVTVSS” the “polyreactivity (PSR sort gate)” value was “high polyreactivity”.
In the case of “QVQLVESGGGLVQAGGSLRLSCAASGRTFPAYAMGWYRQAPGKERELVAAISYSGGRTRYADSVKGRFTISRDNAKNTVYLQMNSLKPEDTAVYDCNRVIPTQSLRDYYWGQGTQVTVSS”, the “polyreactivity (PSR sort gate)” value is reported as “high polyreactivity”.
In the case of “QVQLVESGGGLVQAGGSLRLSCAASGRTFPAYAMGWYRQAPRKERELVARISYSGGNTYYADSVKGRFTISRDNAKNTVYLQMNSLKPEDTAVYYCAATRSHYPYRSGGDYWGQGTQVTVSS”, the “polyreactivity (PSR sort gate)” value is reported as “low polyreactivity”.
For “QVQLVESGGGLVQAGGSLRLSCAASGRTFPFNAMGWYRQAPGKERELVAGISSGGRTNYADSVKGRFTISRDNAKNTVYLQMNSMQPEDTAVYYCAARYQPSRAARWTLDYWGQGTQVTVSS”, the “polyreactivity (PSR sort gate)” value was “high polyreactivity”.
With “QVQLVESGGGLVQAGGSLRLSCAASGRTFPFYAMGWYRQAPGKEREFVAAITASGDSTYYADSVKGRFTISRDNAKNTVYLQMNSLKPEDTAVYYCAADLPVWYVTRYDYWGQGTQVTVSS” the “polyreactivity (PSR sort gate)” value was “low polyreactivity”.
With “QVQLVESGGGLVQAGGSLRLSCAASGRTFPGNAMGGYRQAPGKERELVAAISSRGGSTYYADSVKGRFTISRDNAKNTVNLQMKSLKPEDTAVYYCNAASNYRVRRTYHGDYWGLGTQVTVSS” the “polyreactivity (PSR sort gate)” value was “high polyreactivity”.
In the case of “QVQLVESGGGLVQAGGSLRLSCAASGRTFPGNAMGWYRQAPGKEREFFAAITRSGGSTYADSVKGRFTISRDNAKNTVYLQMNSLKPEDTAVSYCAATFKWYSHTKPRFDYWGQGTKVTVSS”, the “polyreactivity (PSR sort gate)” value is reported as “low polyreactivity”.
For “QVQLVESGGGLVQAGGSLRLSCAASGRTFPGNAMGWYRQAPGKERELVAAISKSSSRTYYADSVKGRFTISRDNAKNTVYLQMNSLKPEDTAVYYCAASSFNNGHRYDYWGQGTQVTVSS”, the “polyreactivity (PSR sort gate)” value was “high polyreactivity”.
With “QVQLVESGGGLVQAGGSLRLSCAASGRTFPGNAMGWYRQAPGKERELVAAISSRGGSTYYADSVKGRFTISRDNAKNTVYLQMNSLKPEDTAVYYCARRYLPYGGYYYWGQGTQVTVSS” the “polyreactivity (PSR sort gate)” value was “high polyreactivity”.
For “QVQLVESGGGLVQAGGSLRLSCAASGRTFPGNAMGWYRQAPGKERELVAAISWSGTRTYYADSVKGRFTISRDNAKNTVYLQINSLKPEDTAVYYCAARRYGVRSYGFDSWGQGTQVTVSS”, the “polyreactivity (PSR sort gate)” value was “high polyreactivity”.
In the case of “QVQLVESGGGLVQAGGSLRLSCAASGRTFPGNAMGWYRQAPGKERELVATITWSSGRTHYADSVKGRFTISRDNAKNTVYLQMNSLKPEDTAVYYCAAKLIVAVGGFYYWGQGTQVTVSS”, the “polyreactivity (PSR sort gate)” value is reported as “low polyreactivity”.
In the case of “QVQLVESGGGLVQAGGSLRLSCAASGRTFPGNDMGWYRQAPGKERELVAAISGNGGNTNYADSVKGRFTISRDNAKNTVYLQMNSLKPEDTAVYYCKADVPSDGYPGYPGGFESWGQGTQVTVSS”, the “polyreactivity (PSR sort gate)” value is reported as “low polyreactivity”.
In the case of “QVQLVESGGGLVQAGGSLRLSCAASGRTFPGYAMGWYREAPGKERELVAAISSSGGSTYYADSVKGRFTISRDNAKNTVYFQMNSLKPEVTAVYSCAVPYWYGRGHCYWGQGTQVTVSS”, the “polyreactivity (PSR sort gate)” value is reported as “low polyreactivity”.
For “QVQLVESGGGLVQAGGSLRLSCAASGRTFPGYAMGWYRQAPGKERELVAAISNSGGRTYYADSVKGRFTISRDYAKNTVYLQMNSLKPEDTAVYYCNATTDNGSNKRYYYWGQGTQVTVSS”, the “polyreactivity (PSR sort gate)” value was “high polyreactivity”.
For “QVQLVESGGGLVQAGGSLRLSCAASGRTFPGYAMGWYRQAPGKERELVAGISYRGGSTYYADSVKGRFTISRDNAKNTVYLQMYSLKPEDTAVYYCARDYSRHKGDYWGQGTQVTVSS”, the “polyreactivity (PSR sort gate)” value was “low polyreactivity”.
In the case of “QVQLVESGGGLVQAGGSLRLSCAASGRTFPINTMGWSRQAPGKEREFVAAITLGGRTYYADSVKGRFTISRDNAKNTVYLQMNSLKPEDTAVYYCAVAQPGYWLYRHFLPGSDYWGQGTQVTVSS”, the “polyreactivity (PSR sort gate)” value is reported as “high polyreactivity”.
With “QVQLVESGGGLVQAGGSLRLSCAASGRTFPIYAMGWYRQAPGKERELVAAITGGGSTNYADSVKGRFTISRDNAKNTVYLQMNSLKPEDTAVYYCNARWFWYRPGGSRVDYWGQGTHVTVSS” the “polyreactivity (PSR sort gate)” value was “high polyreactivity”.
With “QVQLVESGGGLVQAGGSLRLSCAASGRTFPIYAMGWYRQAPGKERELVAAITYSGGSTYYADSVKGRFTISRDNAKNTVYLQMNSLKPEDTAVSYCAVDGTKPYWHQRYDYWGQGTLVTVSS” the “polyreactivity (PSR sort gate)” value was “low polyreactivity”.
For “QVQLVESGGGLVQAGGSLRLSCAASGRTFPIYAMGWYRQSPGKERELVAAITYSGGSTYYADSVKGRFTISRDNANNKVYLKMNSLKPEDTSVYYCAVDGTKPYWHQRYDYWGQGTQVTVSS”, the “polyreactivity (PSR sort gate)” value was “low polyreactivity”.
With “QVQLVESGGGLVQAGGSLRLSCAASGRTFPLNAMGWYRQAPGKERELVAAITWSGGRTYYADSVKGRFTISRDNAKNTVYLQMNSLKPEDTAVYYCNVDKVTSWYYYGYWGQGTQVTVSS” the “polyreactivity (PSR sort gate)” value was “low polyreactivity”.
